Drawing on patent US20250109209A1 (ABSCI, published 2025), this text covers Kd for eight molecules.

Experiment [1] deals with T1, human TL1A (human, UniProt O95150 72-251).
T1 construct: Antigen in SPR and ELISA; Also used here for places that print only 'TL1A' and for endogenous TL1A in human whole blood; also called TNFSF15
T1 sequence (looked up): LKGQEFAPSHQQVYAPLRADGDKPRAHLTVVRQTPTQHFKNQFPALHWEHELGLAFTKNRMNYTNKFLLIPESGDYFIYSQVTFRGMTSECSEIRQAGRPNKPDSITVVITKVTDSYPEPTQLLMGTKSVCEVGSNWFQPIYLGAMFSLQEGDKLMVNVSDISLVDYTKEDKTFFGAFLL
Briefly: SPR, mAb format, average.

Experiment [2] has as its target T1, human TL1A. Description: SPR, mAb format, average. The source holds these as a separate data set. For orientation: Surface plasmon resonance follows binding to a sensor surface in real time, without labels.
For the next experiment, the target named is T2, mouse TL1A (mouse, UniProt Q5UBV8 76-252, limits assumed).
T2 sequence (looked up): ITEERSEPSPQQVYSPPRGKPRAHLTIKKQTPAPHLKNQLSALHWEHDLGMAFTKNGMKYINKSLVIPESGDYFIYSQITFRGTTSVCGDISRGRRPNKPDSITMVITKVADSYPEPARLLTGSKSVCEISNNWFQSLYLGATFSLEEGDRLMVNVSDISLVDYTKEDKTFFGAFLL
Description: SPR, mAb format, average.

The target of a further experiment is T3, Cyno TL1A (cyno, UniProt G7PRK8 72-251).
T3 sequence: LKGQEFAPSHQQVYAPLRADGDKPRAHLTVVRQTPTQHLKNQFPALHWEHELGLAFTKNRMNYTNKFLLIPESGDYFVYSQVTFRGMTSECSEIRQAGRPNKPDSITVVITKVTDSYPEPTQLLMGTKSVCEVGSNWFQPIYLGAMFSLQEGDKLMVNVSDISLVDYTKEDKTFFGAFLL
Briefly: SPR, mAb format, average.

In experiment [3] the target is T1, human TL1A. Description: SPR, mAb format, average. This is another data set of the same source.
A further experiment addresses T4, FcRn (UniProt P55899 24-297; P61769 21-119).
T4 construct: also called neonatal receptor
Description: SPR, mAb format, FcRn at pH 6.0, average.

Where two headings read alike, the source gives them in different places.

T4 sequence (P55899 24-297 limits assumed, chain 1 of 2): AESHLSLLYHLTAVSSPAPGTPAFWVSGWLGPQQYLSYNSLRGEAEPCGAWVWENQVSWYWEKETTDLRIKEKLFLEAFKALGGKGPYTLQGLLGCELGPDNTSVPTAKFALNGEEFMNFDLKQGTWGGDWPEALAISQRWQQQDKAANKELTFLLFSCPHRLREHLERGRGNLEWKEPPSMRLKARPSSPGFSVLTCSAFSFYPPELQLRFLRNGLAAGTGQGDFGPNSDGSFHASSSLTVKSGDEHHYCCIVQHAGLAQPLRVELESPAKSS
T4 sequence (P61769 21-119 limits assumed, chain 2 of 2): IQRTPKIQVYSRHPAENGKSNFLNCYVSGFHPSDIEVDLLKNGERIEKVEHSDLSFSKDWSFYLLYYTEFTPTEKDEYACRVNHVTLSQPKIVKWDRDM

B1: Antibody 16 (mAb format) (antibody, human IgG1, kappa, N297A)
heavy: QVQLQESGPGLVRPSQTLSLTCTVSGFDMQSTYMHWVRQRPGRGLEWMGRIEPAGGHTKYNPSLKSRVTITRDTSKNQVSLRLSSVTAADTAVYYCVRSGGLPDVWGQGSLVTVSSASTKGPSVFPLAPSSKSTSGGTAALGCLVKDYFPEPVTVSWNSGALTSGVHTFPAVLQSSGLYSLSSVVTVPSSSLGTQTYICNVNHKPSNTKVDKKVEPKSCDKTHTCPPCPAPELLGGPSVFLFPPKPKDTLMISRTPEVTCVVVDVSHEDPEVKFNWYVDGVEVHNAKTKPREEQYASTYRVVSVLTVLHQDWLNGKEYKCKVSNKALPAPIEKTISKAKGQPREPQVYTLPPSRDELTKNQVSLTCLVKGFYPSDIAVEWESNGQPENNYKTTPPVLDSDGSFFLYSKLTVDKSRWQQGNVFSCSVLHEALHSHYTQKSLSLSPGK
light: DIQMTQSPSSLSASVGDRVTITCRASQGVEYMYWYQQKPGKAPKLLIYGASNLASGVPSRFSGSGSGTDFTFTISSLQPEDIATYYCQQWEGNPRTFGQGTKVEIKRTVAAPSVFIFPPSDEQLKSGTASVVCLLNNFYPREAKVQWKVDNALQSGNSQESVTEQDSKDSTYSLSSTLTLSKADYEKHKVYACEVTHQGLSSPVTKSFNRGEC
notes: also called high priority lead mAb
Turning to B1, the Kd (usually the equilibrium constant for the complex coming apart) was 0.339 nM in the experiment with human TL1A [1]; 0.339 nM with human TL1A [2]; 955 nM in the experiment with mouse TL1A; 0.09 nM in the experiment with Cyno TL1A; 0.339 nM in the experiment with human TL1A [3]; 17.7 nM in the experiment with FcRn.

B2: Antibody 7 (mAb format) (antibody, human IgG1, kappa, N297A)
heavy: QVQLQESGPGLVRPSQTLSLTCTVSGFDMGDTYMHWVRQRPGRGLEWMGRIEPAAGHTKYNPSLKSRVTITRDTSKNQVSLRLSSVTAADTAVYYCVRSGGLPDIWGQGSLVTVSSASTKGPSVFPLAPSSKSTSGGTAALGCLVKDYFPEPVTVSWNSGALTSGVHTFPAVLQSSGLYSLSSVVTVPSSSLGTQTYICNVNHKPSNTKVDKKVEPKSCDKTHTCPPCPAPELLGGPSVFLFPPKPKDTLMISRTPEVTCVVVDVSHEDPEVKFNWYVDGVEVHNAKTKPREEQYASTYRVVSVLTVLHQDWLNGKEYKCKVSNKALPAPIEKTISKAKGQPREPQVYTLPPSRDELTKNQVSLTCLVKGFYPSDIAVEWESNGQPENNYKTTPPVLDSDGSFFLYSKLTVDKSRWQQGNVFSCSVLHEALHSHYTQKSLSLSPGK
light: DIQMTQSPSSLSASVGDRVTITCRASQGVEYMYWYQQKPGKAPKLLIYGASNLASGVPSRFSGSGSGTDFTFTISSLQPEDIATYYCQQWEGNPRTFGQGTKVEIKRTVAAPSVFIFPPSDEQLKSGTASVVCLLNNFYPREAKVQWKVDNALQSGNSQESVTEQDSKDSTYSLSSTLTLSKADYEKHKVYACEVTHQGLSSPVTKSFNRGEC
notes: as for B1
As for B2, the Kd was found to be 0.179 nM with human TL1A [1]; 0.179 nM with human TL1A [2]; 1270 nM with mouse TL1A; 0.125 nM with Cyno TL1A; 0.179 nM with human TL1A [3]; 19 nM with FcRn.

B3: Antibody 4 (mAb format) (antibody, human IgG1, kappa, N297A)
heavy: QVQLQESGPGLVRPSQTLSLTCTVSGFDMADTYMHWVRQRPGRGLEWMGRIEPAGGHTKYNPSLKSRVTITRDTSKNQVSLRLSSVTAADTAVYYCVRSGGLPDMWGQGSLVTVSSASTKGPSVFPLAPSSKSTSGGTAALGCLVKDYFPEPVTVSWNSGALTSGVHTFPAVLQSSGLYSLSSVVTVPSSSLGTQTYICNVNHKPSNTKVDKKVEPKSCDKTHTCPPCPAPELLGGPSVFLFPPKPKDTLMISRTPEVTCVVVDVSHEDPEVKFNWYVDGVEVHNAKTKPREEQYASTYRVVSVLTVLHQDWLNGKEYKCKVSNKALPAPIEKTISKAKGQPREPQVYTLPPSRDELTKNQVSLTCLVKGFYPSDIAVEWESNGQPENNYKTTPPVLDSDGSFFLYSKLTVDKSRWQQGNVFSCSVLHEALHSHYTQKSLSLSPGK
light: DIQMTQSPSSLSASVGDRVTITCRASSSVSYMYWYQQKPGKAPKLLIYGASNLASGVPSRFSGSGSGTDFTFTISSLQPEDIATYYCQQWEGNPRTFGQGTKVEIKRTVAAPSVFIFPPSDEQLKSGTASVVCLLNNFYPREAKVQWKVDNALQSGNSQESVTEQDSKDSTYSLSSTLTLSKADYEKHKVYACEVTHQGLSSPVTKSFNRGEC
notes: as for B1
Turning to B3, the Kd with human TL1A [1] is 0.051 nM; with human TL1A [2] it was 0.051 nM; with mouse TL1A, 290 nM; with Cyno TL1A, 0.034 nM; with human TL1A [3], 0.051 nM; with FcRn it was 16.9 nM.

B4: Antibody 5 (mAb format) (antibody, human IgG1, kappa, N297A)
heavy: QVQLQESGPGLVRPSQTLSLTCTVSGFDMQDTYMHWVRQRPGRGLEWMGRIEPASGHTKYNPSLKSRVTITRDTSKNQVSLRLSSVTAADTAVYYCVRSGGLPDVWGQGSLVTVSSASTKGPSVFPLAPSSKSTSGGTAALGCLVKDYFPEPVTVSWNSGALTSGVHTFPAVLQSSGLYSLSSVVTVPSSSLGTQTYICNVNHKPSNTKVDKKVEPKSCDKTHTCPPCPAPELLGGPSVFLFPPKPKDTLMISRTPEVTCVVVDVSHEDPEVKFNWYVDGVEVHNAKTKPREEQYASTYRVVSVLTVLHQDWLNGKEYKCKVSNKALPAPIEKTISKAKGQPREPQVYTLPPSRDELTKNQVSLTCLVKGFYPSDIAVEWESNGQPENNYKTTPPVLDSDGSFFLYSKLTVDKSRWQQGNVFSCSVLHEALHSHYTQKSLSLSPGK
light: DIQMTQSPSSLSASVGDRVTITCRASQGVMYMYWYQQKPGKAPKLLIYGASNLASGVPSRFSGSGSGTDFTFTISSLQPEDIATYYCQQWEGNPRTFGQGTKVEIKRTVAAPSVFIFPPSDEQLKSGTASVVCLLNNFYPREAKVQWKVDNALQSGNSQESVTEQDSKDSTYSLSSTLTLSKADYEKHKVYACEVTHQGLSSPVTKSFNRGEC
notes: as for B1
Consider B4, for which the Kd with human TL1A [1] stood at 0.073 nM; in the experiment with human TL1A [2], 0.073 nM; with mouse TL1A, 727 nM; with Cyno TL1A, 0.038 nM; with human TL1A [3] it was 0.073 nM; with FcRn it was 17.2 nM.

B5: Antibody 1 (mAb format) (antibody, human IgG1, kappa, N297A)
heavy: QVQLQESGPGLVRPSQTLSLTCTVSGFDIQDTYMHWVRQRPGRGLEWMGRIEPAGGHTKYNPSLKSRVTITRDTSKNQVSLRLSSVTAADTAVYYCASSGGMPDLWGQGSLVTVSSASTKGPSVFPLAPSSKSTSGGTAALGCLVKDYFPEPVTVSWNSGALTSGVHTFPAVLQSSGLYSLSSVVTVPSSSLGTQTYICNVNHKPSNTKVDKKVEPKSCDKTHTCPPCPAPELLGGPSVFLFPPKPKDTLMISRTPEVTCVVVDVSHEDPEVKFNWYVDGVEVHNAKTKPREEQYASTYRVVSVLTVLHQDWLNGKEYKCKVSNKALPAPIEKTISKAKGQPREPQVYTLPPSRDELTKNQVSLTCLVKGFYPSDIAVEWESNGQPENNYKTTPPVLDSDGSFFLYSKLTVDKSRWQQGNVFSCSVLHEALHSHYTQKSLSLSPGK
light: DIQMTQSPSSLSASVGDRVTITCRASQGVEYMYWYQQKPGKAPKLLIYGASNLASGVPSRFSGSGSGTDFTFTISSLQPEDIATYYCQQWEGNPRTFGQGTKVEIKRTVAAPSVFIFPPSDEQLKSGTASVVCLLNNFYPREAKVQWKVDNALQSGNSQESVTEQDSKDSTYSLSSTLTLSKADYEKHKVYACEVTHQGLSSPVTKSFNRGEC
notes: also called Lead #1; high priority lead mAb
Consider B5, for which the Kd with human TL1A [1] turned out to be 0.151 nM; with human TL1A [2] it was 0.151 nM; with mouse TL1A, 74500 nM; with Cyno TL1A, 0.139 nM; with human TL1A [3], 0.151 nM; with FcRn, 17.5 nM.

B6: Antibody 8 (mAb format) (antibody, human IgG1, kappa, N297A)
heavy: QVQLQESGPGLVRPSQTLSLTCTVSGFDMQSTYMHWVRQRPGRGLEWMGRIEPAGGHTKYNPSLKSRVTITRDTSKNQVSLRLSSVTAADTAVYYCVRSGGLPDVWGQGSLVTVSSASTKGPSVFPLAPSSKSTSGGTAALGCLVKDYFPEPVTVSWNSGALTSGVHTFPAVLQSSGLYSLSSVVTVPSSSLGTQTYICNVNHKPSNTKVDKKVEPKSCDKTHTCPPCPAPELLGGPSVFLFPPKPKDTLMISRTPEVTCVVVDVSHEDPEVKFNWYVDGVEVHNAKTKPREEQYASTYRVVSVLTVLHQDWLNGKEYKCKVSNKALPAPIEKTISKAKGQPREPQVYTLPPSRDELTKNQVSLTCLVKGFYPSDIAVEWESNGQPENNYKTTPPVLDSDGSFFLYSKLTVDKSRWQQGNVFSCSVLHEALHSHYTQKSLSLSPGK
light: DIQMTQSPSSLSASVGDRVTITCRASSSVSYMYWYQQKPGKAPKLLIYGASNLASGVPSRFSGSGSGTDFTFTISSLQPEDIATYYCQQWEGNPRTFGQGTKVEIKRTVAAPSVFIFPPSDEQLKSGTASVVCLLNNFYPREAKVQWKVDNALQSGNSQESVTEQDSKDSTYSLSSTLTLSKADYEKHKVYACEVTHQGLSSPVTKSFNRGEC
notes: as for B1
Take B6: the Kd came out at 0.091 nM with human TL1A [1]; 0.091 nM in the experiment with human TL1A [2]; 418 nM in the experiment with mouse TL1A; 0.085 nM with Cyno TL1A; 0.091 nM in the experiment with human TL1A [3]; 17.6 nM in the experiment with FcRn.

B7: Antibody 6 (mAb format) (antibody, human IgG1, kappa, N297A)
heavy: QVQLQESGPGLVRPSQTLSLTCTVSGFDMADTYMHWVRQRPGRGLEWMGRIEPAGGHTKYNPSLKSRVTITRDTSKNQVSLRLSSVTAADTAVYYCVRSGGLPDMWGQGSLVTVSSASTKGPSVFPLAPSSKSTSGGTAALGCLVKDYFPEPVTVSWNSGALTSGVHTFPAVLQSSGLYSLSSVVTVPSSSLGTQTYICNVNHKPSNTKVDKKVEPKSCDKTHTCPPCPAPELLGGPSVFLFPPKPKDTLMISRTPEVTCVVVDVSHEDPEVKFNWYVDGVEVHNAKTKPREEQYASTYRVVSVLTVLHQDWLNGKEYKCKVSNKALPAPIEKTISKAKGQPREPQVYTLPPSRDELTKNQVSLTCLVKGFYPSDIAVEWESNGQPENNYKTTPPVLDSDGSFFLYSKLTVDKSRWQQGNVFSCSVLHEALHSHYTQKSLSLSPGK
light: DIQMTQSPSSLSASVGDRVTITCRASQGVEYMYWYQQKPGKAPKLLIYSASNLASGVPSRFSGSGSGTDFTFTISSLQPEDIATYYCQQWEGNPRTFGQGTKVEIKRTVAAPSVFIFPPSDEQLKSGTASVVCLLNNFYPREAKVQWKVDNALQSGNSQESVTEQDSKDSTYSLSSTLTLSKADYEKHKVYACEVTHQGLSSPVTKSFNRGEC
notes: as for B1
Take B7: the Kd amounted to 0.101 nM with human TL1A [1]; 0.101 nM with human TL1A [2]; 1720 nM with mouse TL1A; 0.085 nM in the experiment with Cyno TL1A; 0.101 nM in the experiment with human TL1A [3]; 20.9 nM with FcRn.

B8: Antibody 9 (mAb format) (antibody, human IgG1, kappa, N297A)
heavy: QVQLQESGPGLVRPSQTLSLTCTVSGFDIQDTYMHWVRQRPGRGLEWMGRIEPAGGHTKYNPSLKSRVTITRDTSKNQVSLRLSSVTAADTAVYYCVRSGGLPDAWGQGSLVTVSSASTKGPSVFPLAPSSKSTSGGTAALGCLVKDYFPEPVTVSWNSGALTSGVHTFPAVLQSSGLYSLSSVVTVPSSSLGTQTYICNVNHKPSNTKVDKKVEPKSCDKTHTCPPCPAPELLGGPSVFLFPPKPKDTLMISRTPEVTCVVVDVSHEDPEVKFNWYVDGVEVHNAKTKPREEQYASTYRVVSVLTVLHQDWLNGKEYKCKVSNKALPAPIEKTISKAKGQPREPQVYTLPPSRDELTKNQVSLTCLVKGFYPSDIAVEWESNGQPENNYKTTPPVLDSDGSFFLYSKLTVDKSRWQQGNVFSCSVLHEALHSHYTQKSLSLSPGK
light: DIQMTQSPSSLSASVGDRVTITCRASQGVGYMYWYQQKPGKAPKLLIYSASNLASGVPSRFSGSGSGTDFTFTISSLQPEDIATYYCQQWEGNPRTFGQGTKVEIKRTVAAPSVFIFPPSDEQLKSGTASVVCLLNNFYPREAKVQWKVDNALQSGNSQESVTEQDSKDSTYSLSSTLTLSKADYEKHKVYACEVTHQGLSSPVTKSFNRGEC
notes: as for B1
For the molecule B8, the dissociation constant (Kd) with human TL1A [1] came out at 0.096 nM; with human TL1A [2], 0.096 nM; in the experiment with mouse TL1A, 739 nM; in the experiment with Cyno TL1A, 0.064 nM; in the experiment with human TL1A [3], 0.096 nM; with FcRn, 18.2 nM.
